This is an account of results in paper PMC9783675.

For the assay, the target named is recombinant Nodulin 22 (PvNod22) with a 6xHis-tag at the N-terminus, lacking the ER-signal peptide (Phaseolus vulgaris L.). In words: ITC; dilution experiment: PvNod22 injected (10 x 2 µL) into buffer, PBS pH 7.5, 25 °C; agglomerates to smaller oligomers; apparent. On the set-up: dH (of dissociation): unit not given here.

In the case of “recombinant Nodulin 22 (PvNod22) with a 6xHis-tag at the N-terminus, lacking the ER-signal peptide (natural protein)”, the Kd is 9.13 µM and the dH (of dissociation) is -49600.
